For the test, the target named is T1, Arabidopsis CRY1 expressed in transgenic Arabidopsis (GFP-CRY1 and Myc-CRY1) (Arabidopsis), Q43125.
T1 chain: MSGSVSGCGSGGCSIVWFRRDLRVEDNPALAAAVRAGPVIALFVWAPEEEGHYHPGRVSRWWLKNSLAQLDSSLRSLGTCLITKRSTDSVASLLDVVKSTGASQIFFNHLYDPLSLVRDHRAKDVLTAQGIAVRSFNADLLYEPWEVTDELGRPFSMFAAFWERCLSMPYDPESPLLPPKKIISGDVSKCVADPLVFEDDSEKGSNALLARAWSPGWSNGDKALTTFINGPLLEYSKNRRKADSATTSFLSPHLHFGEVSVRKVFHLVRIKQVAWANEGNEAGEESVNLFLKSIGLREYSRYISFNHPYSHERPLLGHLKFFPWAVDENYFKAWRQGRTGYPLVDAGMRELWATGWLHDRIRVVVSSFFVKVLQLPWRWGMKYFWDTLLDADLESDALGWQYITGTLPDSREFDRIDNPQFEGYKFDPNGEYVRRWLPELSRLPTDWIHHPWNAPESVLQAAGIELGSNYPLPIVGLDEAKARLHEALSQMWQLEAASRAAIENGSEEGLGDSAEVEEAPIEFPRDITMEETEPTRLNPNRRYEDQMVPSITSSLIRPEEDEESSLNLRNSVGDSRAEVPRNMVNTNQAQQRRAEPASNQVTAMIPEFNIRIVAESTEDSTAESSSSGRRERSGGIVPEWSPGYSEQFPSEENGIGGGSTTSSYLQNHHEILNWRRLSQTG
Nature of the test: co-IP. The conditions noted are these: remark: other sources report otherwise.

The source of these data is publication PMC7056577.

Where “and” joins values, the source holds several entries; their conditions need not be identical. Equal entries are not always repeated.

B1: Arabidopsis CRY1 expressed in transgenic Arabidopsis (GFP-CRY1 and Myc-CRY1), Q43125 1-681 (natural protein)
chain: T1 chain
As to B1, the 60F50 (fluence rate of blue light for 50% photooligomerization after 60 seconds) was 14.9 μmolm^−2s^−1 and 16.2 μmolm^−2s^−1.
